Two molecules from PMC7725785, “TRIB3 promotes MYC-associated lymphoma development through suppression of UBE3B-mediated MYC degradation” (Nature Communications, 2020) can be followed below.

One assay deals with T1, GST-tagged TRIB3 (human, UniProt Q96RU7 1-358).
T1 construct: purified recombinant TRIB3; also called TRIB3-GST; TRIB3 protein; source: bought: Sinobiological (10731-H09B), purified
T1 sequence (looked up): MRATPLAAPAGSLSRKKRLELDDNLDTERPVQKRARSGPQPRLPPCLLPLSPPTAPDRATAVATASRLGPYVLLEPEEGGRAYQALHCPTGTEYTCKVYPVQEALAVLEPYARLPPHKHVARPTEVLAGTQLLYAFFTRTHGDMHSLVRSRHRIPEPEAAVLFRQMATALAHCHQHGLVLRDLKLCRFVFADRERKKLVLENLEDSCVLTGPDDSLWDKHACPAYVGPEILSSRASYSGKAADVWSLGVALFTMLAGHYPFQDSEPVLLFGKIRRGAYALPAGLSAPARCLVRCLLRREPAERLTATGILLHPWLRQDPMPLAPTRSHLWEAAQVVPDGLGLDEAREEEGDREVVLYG
As to the kind of experiment: SPR; BIAcore T200; TRIB3 immobilised directly on a CM5 chip; 0–200 nM peptide passed over; HBS-EP pH 7.4, 25 °C, 25 μl/min. To be noted: both partners purified.

Assay [1] addresses T2, UBE3B (His-tagged), recombinant (human, UniProt Q7Z3V4 1-1068).
T2 construct: recombinant UBE3B; also called purified UBE3B; source: Freestyle 293-F cells, transient transfection, purified (Ni-NTA, Superdex 200)
T2 sequence (looked up): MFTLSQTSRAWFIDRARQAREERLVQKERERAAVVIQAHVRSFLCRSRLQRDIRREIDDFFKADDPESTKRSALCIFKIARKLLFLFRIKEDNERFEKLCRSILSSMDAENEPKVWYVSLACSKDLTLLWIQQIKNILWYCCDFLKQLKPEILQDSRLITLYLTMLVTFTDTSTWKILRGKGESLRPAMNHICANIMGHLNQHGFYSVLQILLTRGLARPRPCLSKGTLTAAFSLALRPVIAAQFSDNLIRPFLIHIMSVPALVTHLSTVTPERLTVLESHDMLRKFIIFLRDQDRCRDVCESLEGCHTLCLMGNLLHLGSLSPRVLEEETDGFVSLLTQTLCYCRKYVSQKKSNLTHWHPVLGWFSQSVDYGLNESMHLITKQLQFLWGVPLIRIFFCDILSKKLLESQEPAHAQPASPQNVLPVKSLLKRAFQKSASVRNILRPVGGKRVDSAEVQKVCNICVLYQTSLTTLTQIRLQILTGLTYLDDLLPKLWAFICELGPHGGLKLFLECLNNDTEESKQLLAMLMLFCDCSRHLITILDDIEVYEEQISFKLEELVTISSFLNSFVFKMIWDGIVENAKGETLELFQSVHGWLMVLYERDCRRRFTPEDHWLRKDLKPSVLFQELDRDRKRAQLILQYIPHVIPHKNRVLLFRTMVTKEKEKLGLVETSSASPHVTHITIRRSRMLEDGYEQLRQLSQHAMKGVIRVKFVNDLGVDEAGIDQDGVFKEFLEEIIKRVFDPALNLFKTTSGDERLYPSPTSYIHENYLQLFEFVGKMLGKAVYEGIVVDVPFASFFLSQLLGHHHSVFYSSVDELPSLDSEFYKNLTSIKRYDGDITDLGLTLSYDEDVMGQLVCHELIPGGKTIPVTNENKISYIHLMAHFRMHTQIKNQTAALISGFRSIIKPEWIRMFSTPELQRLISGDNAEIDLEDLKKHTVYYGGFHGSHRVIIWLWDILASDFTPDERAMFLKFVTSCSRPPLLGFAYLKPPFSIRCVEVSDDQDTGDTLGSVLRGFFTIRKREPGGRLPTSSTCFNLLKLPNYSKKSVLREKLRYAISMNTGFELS
As to the kind of experiment: co-IP; in vitro co-IP: purified His-tagged UBCH3 (5 μg) and His-tagged UBE3B (5 μg) with GST-tagged TRIB3 or the KD(C) domain; 1% NP-40, 120 mM NaCl, 40 mM tris-HCl pH 7.4, 6 h at 4 °C. The settings on record: both partners purified.

Where no end group is shown, it is not given here. [ ]: non-standard residue; d: D form.

B1: CM4 peptide (peptide)
peptide: [dK][dR][dR][dE][dQ][dL][dK][dH][dK][dL][dE][dQ][dL][dR]
notes: α-helical peptide derived from the C terminus of MYC; source: synthetic peptide (Chinese Peptide Inc., >98% purity)
B1: the equilibrium dissociation constant (Kd) (usually the concentration at which binding is half-saturated) in the assay with GST-tagged TRIB3 is 76.4 nM. That is a double-digit nanomolar value.

B2: purified His-tagged UBCH3 (enzyme, UniProt P49427 1-236, looked up)
chain: MARPLVPSSQKALLLELKGLQEEPVEGFRVTLVDEGDLYNWEVAIFGPPNTYYEGGYFKARLKFPIDYPYSPPAFRFLTKMWHPNIYETGDVCISILHPPVDDPQSGELPSERWNPTQNVRTILLSVISLLNEPNTFSPANVDASVMYRKWKESKGKDREYTDIIRKQVLGTKVDAERDGVKVPTTLAEYCVKTKAPAPDEGSDLFYDDYYEDGEVEEEADSCFGDDEDDSGTEES
notes: UBCH3 (CDC34), purified; also called UBCH3 (E2); UHCH3
On to B2, for which the binding result in assay [1] is recorded as “binds”.
